B1: biotinylated ClfA region A protein (other)
chain: SENSVTQSDSASNESKSNDSSSVSAAPKTDDTNVSDTKTSSNTNNGETSVAQNPAQQETTQSSSTNATTEETPVTGEATTTTTNQANTPATTQSSNTNAEELVNQTSNETTFNDTNTVSSVNSPQNSTNAENVSTTQDTSTEATPSNNESAPQSTDASNKDVVNQAVNTSAPRMRAFSLAAVAADAPAAGTDITNQLTNVTVGIDSGTTVYPHQAGYVKLNYGFSVPNSAVKGDTFKITVPKELNLNGVTSTAKVPPIMAGDQVLANGVIDSDGNVIYTFTDYVNTKDDVKATLTMPAYIDPENVKKTGNVTLATGIGSTTANKTVLVDYEKYGKFYNLSIKGTIDQIDKTNNTYRQTIYVNPSGDNVIAPVLTGNLKPNTDSNALIDQQNTSIKVYKVDNAADLSESYFVNPENFEDVTNSVNITFPNPNQYKVEFNTPDDQITTPYIVVVNGHIDPNSKGDLALRSTLYGYNSNIIWRSMSWDNEVAFNNGSGSGDGIDKPVVPEQPDEPGEIEPIPE
modifications: biotinylated (sites not given)
notes: domain: region A; also called biotinylated recombinant region A from ClfA; C1fA region A
B2: biotinylated ClfB (His-tag recombinant region A) (other)
chain: SEQSNDTTQSSKNNASADSEKNNMIETPQLNTTANDTSDISANTNSANVDSTTKPMSTQTSNTTTTEPASTNETPQPTAIKNQATAAKMQDQTVPQEGNSQVDNKTTNDANSIATNSELKNSQTLDLPQSSPQTISNAQGTSKPSVRTRAVRSLAVAEPVVNAADAKGTNVNDKVTASNFKLEKTTFDPNQSGNTFMAANFTVTDKVKSGDYFTAKLPDSLTGNGDVDYSNSNNTMPIADIKSTNGDVVAKATYDILTKTYTFVFTDYVNNKENINGQFSLPLFTDRAKAPKSGTYDANINIADEMFNNKITYNYSSPIAGIDKPNGANISSQIIGVDTASGQNTYKQTVFVNPKQRVLGNTWVYIKGYQDKIEESSGKVSATDTKLRIFEVNDTSKLSDSYYADPNDSNLKEVTDQFKNRIYYEHPNVASIKFGDITKTYVVLVEGHYDNTGKNLKTQVIQENVDPVTNRDYSIFGWNNENVVRYGGGSADGDSAVN
modifications: Biotinylated with EZ link-sulfo-NHS-LC-Biotin (sites not given); N-terminal His-tag from pV4 left off.
notes: Region A (S45 to N542) amplified from S. aureus Newman genomic DNA, cloned in His-tag vector pV4, purified on nickel; also called ClfB region A; biotinylated purified ClfB region A

In assay [1] the target is T1, bovine serum albumin (bovine, UniProt P02769 25-607).
T1 construct: Negative control coat in ELISA; also called BSA
T1 sequence (P02769 25-607 limits assumed): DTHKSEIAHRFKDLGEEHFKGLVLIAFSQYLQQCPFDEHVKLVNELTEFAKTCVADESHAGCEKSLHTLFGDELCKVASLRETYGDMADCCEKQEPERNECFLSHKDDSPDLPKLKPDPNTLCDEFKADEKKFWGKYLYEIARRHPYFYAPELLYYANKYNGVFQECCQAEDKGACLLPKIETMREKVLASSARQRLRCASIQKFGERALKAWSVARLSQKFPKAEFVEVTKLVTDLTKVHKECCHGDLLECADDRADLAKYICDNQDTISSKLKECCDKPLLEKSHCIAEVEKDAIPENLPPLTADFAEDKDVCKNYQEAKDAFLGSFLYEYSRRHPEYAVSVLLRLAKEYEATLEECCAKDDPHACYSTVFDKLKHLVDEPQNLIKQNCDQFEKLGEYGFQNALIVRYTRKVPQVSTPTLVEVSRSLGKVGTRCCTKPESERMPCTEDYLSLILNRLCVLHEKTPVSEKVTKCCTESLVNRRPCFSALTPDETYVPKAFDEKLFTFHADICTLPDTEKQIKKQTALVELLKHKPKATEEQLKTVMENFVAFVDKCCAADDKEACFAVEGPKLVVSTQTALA
Put plainly: direct ELISA, biotinylated region A on BSA-coated plates.

Assay [2] deals with T2, human fibrinogen (human, UniProt P02671 20-629; P02675 31-491; P02679 27-437).
T2 construct: Purified human fibrinogen, bought (Chromogenix for ELISA, Calbiochem for clumping); The plate adherence assays say only 'fibrinogen'; also called solid phase fibrinogen; immobilized fibrinogen
T2 sequence 1: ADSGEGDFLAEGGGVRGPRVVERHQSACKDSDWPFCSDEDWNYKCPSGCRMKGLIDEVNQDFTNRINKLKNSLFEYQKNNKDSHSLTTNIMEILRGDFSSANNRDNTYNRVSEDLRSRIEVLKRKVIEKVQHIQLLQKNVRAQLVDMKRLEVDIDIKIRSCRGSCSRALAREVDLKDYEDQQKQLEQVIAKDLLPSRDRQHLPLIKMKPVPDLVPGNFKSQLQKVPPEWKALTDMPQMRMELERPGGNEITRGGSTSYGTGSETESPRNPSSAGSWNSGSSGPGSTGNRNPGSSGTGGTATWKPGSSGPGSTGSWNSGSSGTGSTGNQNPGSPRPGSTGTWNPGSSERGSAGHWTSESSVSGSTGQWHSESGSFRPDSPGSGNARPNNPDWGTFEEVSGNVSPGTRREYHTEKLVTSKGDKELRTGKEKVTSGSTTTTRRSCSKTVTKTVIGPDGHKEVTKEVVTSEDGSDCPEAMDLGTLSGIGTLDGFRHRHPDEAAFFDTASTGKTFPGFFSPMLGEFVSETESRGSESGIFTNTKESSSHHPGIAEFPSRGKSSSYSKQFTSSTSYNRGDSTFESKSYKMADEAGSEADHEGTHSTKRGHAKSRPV
T2 sequence 2: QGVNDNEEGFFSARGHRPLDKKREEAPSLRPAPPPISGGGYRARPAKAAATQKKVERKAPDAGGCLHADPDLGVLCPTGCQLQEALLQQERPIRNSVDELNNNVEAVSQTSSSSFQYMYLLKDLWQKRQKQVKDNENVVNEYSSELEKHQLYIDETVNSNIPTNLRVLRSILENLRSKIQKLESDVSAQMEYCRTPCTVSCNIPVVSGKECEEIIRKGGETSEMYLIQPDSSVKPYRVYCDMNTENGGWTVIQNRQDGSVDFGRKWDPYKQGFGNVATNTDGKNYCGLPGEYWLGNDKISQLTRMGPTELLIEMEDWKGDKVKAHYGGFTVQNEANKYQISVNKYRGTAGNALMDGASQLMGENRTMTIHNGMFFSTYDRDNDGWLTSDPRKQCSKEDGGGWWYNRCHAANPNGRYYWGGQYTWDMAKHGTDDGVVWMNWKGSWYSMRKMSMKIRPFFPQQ
T2 sequence 3: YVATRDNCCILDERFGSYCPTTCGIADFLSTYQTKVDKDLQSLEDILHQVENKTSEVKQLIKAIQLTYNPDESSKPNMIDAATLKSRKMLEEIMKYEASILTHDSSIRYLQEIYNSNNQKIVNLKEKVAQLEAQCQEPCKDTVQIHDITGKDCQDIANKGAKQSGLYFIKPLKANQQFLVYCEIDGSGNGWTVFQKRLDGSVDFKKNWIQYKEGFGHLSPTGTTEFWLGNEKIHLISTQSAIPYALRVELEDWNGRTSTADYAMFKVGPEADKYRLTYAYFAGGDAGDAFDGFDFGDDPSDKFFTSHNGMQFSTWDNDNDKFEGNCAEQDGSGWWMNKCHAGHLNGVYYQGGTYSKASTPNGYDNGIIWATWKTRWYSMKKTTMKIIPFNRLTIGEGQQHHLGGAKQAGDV
Put plainly: direct ELISA, biotinylated region A on fibrinogen-coated plates (Figure 14).

For assay [3], the target named is T3, alpha chain of human fibrinogen (human, UniProt P02671 20-629).
T3 construct: Band of human fibrinogen (Chromogenix) after SDS-PAGE, on nitrocellulose; also called α chain of fibrinogen
T3 sequence: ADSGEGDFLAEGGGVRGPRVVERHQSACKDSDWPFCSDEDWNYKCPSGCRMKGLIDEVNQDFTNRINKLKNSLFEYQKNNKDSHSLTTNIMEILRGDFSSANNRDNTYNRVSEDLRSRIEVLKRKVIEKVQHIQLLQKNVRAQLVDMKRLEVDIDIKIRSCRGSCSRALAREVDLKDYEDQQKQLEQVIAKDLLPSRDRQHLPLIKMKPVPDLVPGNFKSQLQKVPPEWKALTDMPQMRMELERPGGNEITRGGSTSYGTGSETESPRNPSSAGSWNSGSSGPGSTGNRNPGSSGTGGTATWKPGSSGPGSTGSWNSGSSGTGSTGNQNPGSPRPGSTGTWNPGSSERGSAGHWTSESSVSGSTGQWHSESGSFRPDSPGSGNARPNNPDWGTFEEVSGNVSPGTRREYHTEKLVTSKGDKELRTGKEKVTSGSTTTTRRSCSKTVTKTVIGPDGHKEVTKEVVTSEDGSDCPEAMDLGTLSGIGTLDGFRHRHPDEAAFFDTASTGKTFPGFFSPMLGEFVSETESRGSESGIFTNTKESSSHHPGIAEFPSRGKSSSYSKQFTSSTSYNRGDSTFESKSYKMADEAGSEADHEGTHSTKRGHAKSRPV
Put plainly: Western affinity blot, blotted human fibrinogen probed with 2.5 µg/ml biotinylated ClfB region A.

The target in assay [4] is B1. Put plainly: Western affinity blot (Figure 22), blotted human fibrinogen probed with 2.5 µg/ml biotinylated region A.
The target of assay [5] is B2. Put plainly: Western affinity blot, blotted human fibrinogen probed with 2.5 µg/ml biotinylated ClfB region A.

Turning to B1, the binding result in assay [1] is “no binding”. Further, the “binding at the highest concentration relative to ClfB region A” value in assay [2] is roughly 50 % greater than ClfB.

For B2, the binding result was “no binding (tested: 0.1-10 µg/ml)” in assay [1], “binds” in assay [2] and “binds” in assay [3].

B3: gamma chain of human fibrinogen (other)
chain: YVATRDNCCILDERFGSYCPTTCGIADFLSTYQTKVDKDLQSLEDILHQVENKTSEVKQLIKAIQLTYNPDESSKPNMIDAATLKSRKMLEEIMKYEASILTHDSSIRYLQEIYNSNNQKIVNLKEKVAQLEAQCQEPCKDTVQIHDITGKDCQDIANKGAKQSGLYFIKPLKANQQFLVYCEIDGSGNGWTVFQKRLDGSVDFKKNWIQYKEGFGHLSPTGTTEFWLGNEKIHLISTQSAIPYALRVELEDWNGRTSTADYAMFKVGPEADKYRLTYAYFAGGDAGDAFDGFDFGDDPSDKFFTSHNGMQFSTWDNDNDKFEGNCAEQDGSGWWMNKCHAGHLNGVYYQGGTYSKASTPNGYDNGIIWATWKTRWYSMKKTTMKIIPFNRLTIGEGQQHHLGGAKQAGDV
notes: Band of human fibrinogen (Chromogenix) after SDS-PAGE, on nitrocellulose; also called γ chain of fibrinogen
Turning to B3, the binding result in assay [4] is on record as “binds”.

B4: beta chain of human fibrinogen (other)
chain: QGVNDNEEGFFSARGHRPLDKKREEAPSLRPAPPPISGGGYRARPAKAAATQKKVERKAPDAGGCLHADPDLGVLCPTGCQLQEALLQQERPIRNSVDELNNNVEAVSQTSSSSFQYMYLLKDLWQKRQKQVKDNENVVNEYSSELEKHQLYIDETVNSNIPTNLRVLRSILENLRSKIQKLESDVSAQMEYCRTPCTVSCNIPVVSGKECEEIIRKGGETSEMYLIQPDSSVKPYRVYCDMNTENGGWTVIQNRQDGSVDFGRKWDPYKQGFGNVATNTDGKNYCGLPGEYWLGNDKISQLTRMGPTELLIEMEDWKGDKVKAHYGGFTVQNEANKYQISVNKYRGTAGNALMDGASQLMGENRTMTIHNGMFFSTYDRDNDGWLTSDPRKQCSKEDGGGWWYNRCHAANPNGRYYWGGQYTWDMAKHGTDDGVVWMNWKGSWYSMRKMSMKIRPFFPQQ
notes: Band of human fibrinogen (Chromogenix) after SDS-PAGE, on nitrocellulose; also called β chain of fibrinogen
As for B4, the binding result in assay [5] was “binds”.

The values are drawn from patent EP2319931A1 (Inhibitex, Inc., dated 2011).
